What was measured:
separase = biological target: T1, separase (Homo sapiens, UniProt Q14674); assay: Re-inhibition of pre-activated separase by recombinant securin (cohesin hSCC1 cleavage); assay type: biochemical; settings: separase 4 nM, one hour on ice
T1 construct: Full-length human separase was PCR-amplified from a human fetal thymus cDNA library; made in house
T1 sequence (Q14674 1-1486): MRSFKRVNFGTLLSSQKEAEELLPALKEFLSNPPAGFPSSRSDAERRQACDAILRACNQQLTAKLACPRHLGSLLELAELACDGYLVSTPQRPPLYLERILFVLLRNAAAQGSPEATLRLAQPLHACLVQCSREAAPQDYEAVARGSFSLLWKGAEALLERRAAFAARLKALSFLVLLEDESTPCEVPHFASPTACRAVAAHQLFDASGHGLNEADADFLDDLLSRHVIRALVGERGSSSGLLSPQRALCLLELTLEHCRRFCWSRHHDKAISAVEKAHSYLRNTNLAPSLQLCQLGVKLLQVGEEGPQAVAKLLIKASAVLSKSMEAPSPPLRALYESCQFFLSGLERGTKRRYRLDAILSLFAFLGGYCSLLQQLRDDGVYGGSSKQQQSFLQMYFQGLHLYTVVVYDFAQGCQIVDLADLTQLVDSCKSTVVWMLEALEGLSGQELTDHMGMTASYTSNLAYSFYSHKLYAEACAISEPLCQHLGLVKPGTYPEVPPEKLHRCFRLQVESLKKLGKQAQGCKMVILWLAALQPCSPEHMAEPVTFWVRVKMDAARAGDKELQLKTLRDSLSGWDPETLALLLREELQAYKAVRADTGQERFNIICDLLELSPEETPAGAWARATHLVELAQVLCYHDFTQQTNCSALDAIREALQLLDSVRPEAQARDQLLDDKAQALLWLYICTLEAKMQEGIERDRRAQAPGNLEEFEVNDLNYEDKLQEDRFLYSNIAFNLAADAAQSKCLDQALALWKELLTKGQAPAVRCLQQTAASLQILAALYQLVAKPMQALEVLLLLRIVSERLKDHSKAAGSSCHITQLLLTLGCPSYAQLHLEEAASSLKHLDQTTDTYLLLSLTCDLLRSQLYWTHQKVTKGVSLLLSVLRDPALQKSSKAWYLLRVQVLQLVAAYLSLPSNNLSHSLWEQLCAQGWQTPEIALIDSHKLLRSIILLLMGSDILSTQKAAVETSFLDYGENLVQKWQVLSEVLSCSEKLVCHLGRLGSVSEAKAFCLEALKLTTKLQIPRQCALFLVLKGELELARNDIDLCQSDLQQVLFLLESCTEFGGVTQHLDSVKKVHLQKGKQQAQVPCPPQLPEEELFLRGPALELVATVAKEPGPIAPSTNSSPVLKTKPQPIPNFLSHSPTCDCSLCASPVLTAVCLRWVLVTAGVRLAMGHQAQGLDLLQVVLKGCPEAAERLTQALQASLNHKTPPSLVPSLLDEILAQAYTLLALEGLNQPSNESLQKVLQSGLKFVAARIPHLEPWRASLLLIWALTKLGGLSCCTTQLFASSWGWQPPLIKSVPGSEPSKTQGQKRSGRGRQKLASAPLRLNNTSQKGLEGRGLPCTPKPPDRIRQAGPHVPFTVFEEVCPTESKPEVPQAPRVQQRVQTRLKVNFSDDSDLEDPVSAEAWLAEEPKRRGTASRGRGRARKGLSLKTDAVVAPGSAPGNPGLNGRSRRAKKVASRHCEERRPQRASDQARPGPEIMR
T1 sequence (Q14674 1536-2120): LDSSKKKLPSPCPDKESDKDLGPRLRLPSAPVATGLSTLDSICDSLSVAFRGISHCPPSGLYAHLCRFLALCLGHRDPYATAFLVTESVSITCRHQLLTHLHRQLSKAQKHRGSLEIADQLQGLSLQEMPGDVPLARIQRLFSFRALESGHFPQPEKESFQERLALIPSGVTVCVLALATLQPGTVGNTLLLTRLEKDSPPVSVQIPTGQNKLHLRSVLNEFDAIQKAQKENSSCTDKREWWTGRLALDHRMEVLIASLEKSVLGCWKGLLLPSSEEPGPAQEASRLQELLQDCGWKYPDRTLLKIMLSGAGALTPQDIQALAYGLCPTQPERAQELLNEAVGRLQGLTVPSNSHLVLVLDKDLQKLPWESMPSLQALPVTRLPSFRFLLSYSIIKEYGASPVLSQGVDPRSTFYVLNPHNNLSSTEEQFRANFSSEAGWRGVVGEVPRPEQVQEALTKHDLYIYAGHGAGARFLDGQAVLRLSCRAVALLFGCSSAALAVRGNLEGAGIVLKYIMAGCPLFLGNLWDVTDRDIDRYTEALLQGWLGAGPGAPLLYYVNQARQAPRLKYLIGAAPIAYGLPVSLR
Procedure: FIGS. 7A-7C depict the independent inhibition of separase activity by phosphorylation of separase and by binding of securin. (A) depicts a Western blot (upper panel) and cohesin^hSCC1 cleavage activity using isolated chromosomes as substrate (lower panel). Lane 2: Consecutive treatment of separase with high-Δ90 extract twice. (B) depicts separase that had been pre-activated in low-Δ90 extract that was eluted and incubated with recombinant securin (lanes 2 and 3) or reference buffer (lane 1) for one hour on ice. Subsequently, its cleavage activity towards in vitro translated ^35S-cohesin^hSCC1 was tested (upper panel). The separase concentration in each reaction was 4 nM, as estimated by Coomassie staining. To compare wild type separase with PM-2/4 mutant separase in its ability to bind securin the same experiment was repeated with PM-2/4 (lower panel). Roughly equal separase concentrations in both cases were assured by comparative immunoblotting (see FIG. 4B, lanes 15 and 17). (C) depicts a model for the dual inhibition of separase in metaphase and its activation at anaphase onset. PPase denotes an unknown protein phosphatase that is proposed to act on phosphorylated separase.
To determine whether securin can inhibit separase independent of the phosphorylation state of separase, and whether separase that has already been activated and has therefore cleaved itself be re-inhibited by either of the two inhibitory mechanisms, active separase was generated by treating a securin/separase complex with a low-Δ90 extract (L; FIG. 7) to degrade securin and dephosphorylate separase. […] Active separase on beads was then incubated with either recombinant securin or a high-Δ90 extract and assayed for its ability to cleave cohesin^hSCC1. […]

[1] = biological target: T2, tagged human separase, wild type, with N-terminal ZZ-TEV4-tag (human, UniProt Q14674 1-2120); assay: affinity-purified complex from transfected 293T cells
T2 construct: It was therefore self-cleaved into about 175 and 55 kDa fragments and dephosphorylated; also called wild type separase; WT

[2] = biological target: T3, tagged human separase, wild type, with three N-terminal HA tags (human, UniProt Q14674 1-2120); assay: affinity isolation of tagged separase from metaphase-arrested transfected 293T cells, Western blot
T3 construct: also called WT; wild type separase; not shown: three HA tags fused to the amino terminus

[3] = biological target: T4, catalytically inactive human separase mutant (catalytic cysteine replaced by serine), with three N-terminal … (human, UniProt Q14674 1-2120); assay: affinity isolation of tagged catalytically inactive separase (CS, lane 2) from transfected 293T cells, Western blot
T4 construct: also called CS; not shown: three HA tags fused to the amino terminus

B1: human securin co-expressed with tagged separase in 293T cells (other, UniProt O95997 2-202, looked up)
chain: ATLIYVDKENGEPGTRVVAKDGLKLGSGPSIKALDGRSQVSTPRFGKTFDAPPALPKATRKALGTVNRATEKSVKTKGPLKQKQPSFSAKKMTEKTVKAKSSVPASDDAYPEIEKFFPFNPLDFESFDLPEEHQIAHLPLSGVPLMILDEERELEKLFQLGPPSPVKMPSPPWESNLLQSPSSILSTLDVELPPVCCDIDI
notes: also called associated securin
- Molar excess of securin sufficient to fully suppress cohesin hSCC1 cleavage (separase): ~2.5 fold molar excess
- binding result [1]: binds
- binding result [2]: binds
- binding result [3]: binds

From patent US20030148462A1, “Dual inhibition of sister chromatid separation at metaphase” (President and fellows of Harvard College, priority 2001, published 2003)
